Here are results for one molecule from patent US20240325562A1, “INTERNALIZING BINDING MOLECULES” (LinXis B.V., priority 2020, published 2024).

Experiment [1] concerns LX-2 cells. The experiment can be described thus: Kinetic internalization assay on LX-2 cells. It counts as cell-based, human. The following applies: FIG. 19 right panel. The procedure: (§1) The rate of internalization (endocytic rate constant, ke) of biparatopic constructs 13F11-13E8 and 13E8-13F11 was determined with a kinetic internalization assay on SCC-hIGF2R and SCC-rIGF2R cells. Briefly, 10 nM of IRD800CW conjugated 13F11-13E8 or 13E8-13F11 (conjugation method as described in example 10.2) was added to hIGF2R expressing SCC cells or rIGF2R expressing SCC cells and incubated at 37° C. for different time points up to 12 minutes. Internalization was then purposely halted by putting the cells on ice. Subsequently, cells were washed with cold PBS and the non-internalized VHH construct (bound fraction) was separated from the internalized construct (internalized fraction) using an acid-wash, as described above, after which the fluorescence of both fractions were measured. Both constructs internalize with similar endocytic rate constants in SCC-hIGF2R cells (ke around 1.5 min-1) and in SCC-rIGF2R cells (ke around 0.7 min-1) (FIGS. 17A and B, respectively).
To determine the rate of internalization of the VHH construct SP02P-SP26P, kinetic internalization assays on hPDGFRB expressing SCC cells and LX-2 cells were performed using a similar method as described for the IGF2R constructs in example 11.1.

The test system of experiment [2] is SCC-hPDGFRB cells. As to the kind of experiment: Kinetic internalization assay on SCC-hPDGFRB cells. It counts as cell-based, human. The procedure: as §1
To determine the rate of internalization of the VHH construct SP02P-SP26P, kinetic internalization assays on hPDGFRB expressing SCC cells and LX-2 cells were performed using a similar method as described for the IGF2R constructs in example 11.1. […]

Experiment [3] addresses T1, murine PDGFRB ectodomain (mPDGFRB-ECD) (Mus musculus, UniProt P05622).
T1 construct: varied across murine PDGFRB ectodomain (mPDGFRB-ECD), rPDGFRB-ECD and hPDGFRB-ECD
T1 sequence (P05622 32-531 limits assumed): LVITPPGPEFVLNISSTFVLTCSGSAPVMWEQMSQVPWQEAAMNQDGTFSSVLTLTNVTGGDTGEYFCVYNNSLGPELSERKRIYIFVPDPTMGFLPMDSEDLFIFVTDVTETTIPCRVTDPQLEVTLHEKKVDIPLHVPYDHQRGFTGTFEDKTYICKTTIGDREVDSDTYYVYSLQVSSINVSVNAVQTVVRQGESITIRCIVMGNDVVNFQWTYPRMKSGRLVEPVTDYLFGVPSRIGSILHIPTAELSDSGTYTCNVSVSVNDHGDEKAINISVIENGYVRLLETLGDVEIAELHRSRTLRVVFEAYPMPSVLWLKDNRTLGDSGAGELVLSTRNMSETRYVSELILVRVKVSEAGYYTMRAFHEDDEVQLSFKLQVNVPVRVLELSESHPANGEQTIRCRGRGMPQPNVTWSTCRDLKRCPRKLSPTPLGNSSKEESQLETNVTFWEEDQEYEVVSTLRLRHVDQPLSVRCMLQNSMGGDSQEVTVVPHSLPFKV
As to the kind of experiment: Binding assay on murine PDGFRB ectodomain. The following applies: IRDye800-conjugated, FIG. 15D.

Experiment [4] relates to SCC-rPGDFRB cells. As to the kind of experiment: Kinetic internalization assay on SCC-rPGDFRB cells. It counts as cell-based. The following applies: IRDye800 conjugates, cells expressing rat PDGFRB. The procedure: as §1
To confirm improved internalization of biparatopic VHH constructs compared to the monomeric individual VHH components, kinetic internalization assays were performed using SCC-rPGDFRB and on SCC-hPDGFRB cells, using a similar method as described for the IGF2R constructs in example 11.1. […]

The target in experiment [5] is T2, rPDGFRB-ECD (Rattus norvegicus, UniProt Q05030).
T2 sequence (Q05030 32-531 limits assumed): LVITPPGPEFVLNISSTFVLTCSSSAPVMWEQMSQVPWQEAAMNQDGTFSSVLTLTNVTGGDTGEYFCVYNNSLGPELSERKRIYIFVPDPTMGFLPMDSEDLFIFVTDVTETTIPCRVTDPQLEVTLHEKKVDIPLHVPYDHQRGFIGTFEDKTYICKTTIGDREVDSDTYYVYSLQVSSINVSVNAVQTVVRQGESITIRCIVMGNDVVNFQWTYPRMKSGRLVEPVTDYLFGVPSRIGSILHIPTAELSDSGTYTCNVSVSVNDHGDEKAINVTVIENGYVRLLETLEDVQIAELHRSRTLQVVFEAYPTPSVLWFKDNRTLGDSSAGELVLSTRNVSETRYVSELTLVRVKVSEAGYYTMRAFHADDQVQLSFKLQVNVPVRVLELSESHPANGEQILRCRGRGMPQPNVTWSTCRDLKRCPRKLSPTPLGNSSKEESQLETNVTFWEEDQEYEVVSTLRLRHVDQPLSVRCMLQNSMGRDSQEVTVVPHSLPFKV
As to the kind of experiment: Binding assay on rPDGFRB-ECD. Particulars: IRDye800-conjugated, FIG. 15D. The procedure: (§2) The 18 unique hPDGFRB binders from libraries 1 and 2, and the 11 unique rPDGFRB binders from libraries 3 and 4 (Example 2.2, FIGS. 5 and 6) were produced and purified as described in examples 3 and 4. Then, the apparent affinities were determined with binding assays on hPDGFRB-ECD and rPDGFRB-ECD, respectively, the setup described in example 5.1. Results are summarized in FIGS. 5 and 6 for the hPDGFRB and rPDGFRB VHHs, respectively.
As Shown in FIG. 15C), the binding affinity of this construct for both hPDGFRB and rPDGFRB are below 5 nM. […] These observations make SP02P (or similar VHH) and SP26P (or similar VHH) particularly promising for use in the present invention.

The target of experiment [6] is hPDGFRB-ECD (Homo sapiens, UniProt P09619). As to the kind of experiment: Binding assay on hPDGFRB-ECD. The following applies: IRDye800-conjugated, FIG. 15D. The procedure: The 15 unique hIGF2R-binding VHH (Example 2.1, FIG. 2) were produced and purified as described in examples 3 and 4. The apparent affinities were determined through binding assay on immobilized hIGF2R-ECD. Briefly, three-fold serial dilution series, starting from 1 μM, of each VHH were plated onto hIGF2R-ECD coated plates. VHH were allowed to bind for two hours after which plates were washed. Then, bound VHH was detected using a VHH-specific IgG antibody, followed by an IRD800CW-conjugated IgG-specific antibody. Plates were read out by fluorimetry.
as §2
Based on their high affinity and binding to non-overlapping hPDGRB epitopes, various biparatopic constructs were prepared based on VHHs SP02P, SP12P SP14P, SP26P and SP28P. The constructs were produced as described in example 7.1. and subjected to binding assay.
As Shown in FIG. 15C), the binding affinity of this construct for both hPDGFRB and rPDGFRB are below 5 nM. […]

hPDGFRB-ECD, sequence (P09619 33-532 limits assumed): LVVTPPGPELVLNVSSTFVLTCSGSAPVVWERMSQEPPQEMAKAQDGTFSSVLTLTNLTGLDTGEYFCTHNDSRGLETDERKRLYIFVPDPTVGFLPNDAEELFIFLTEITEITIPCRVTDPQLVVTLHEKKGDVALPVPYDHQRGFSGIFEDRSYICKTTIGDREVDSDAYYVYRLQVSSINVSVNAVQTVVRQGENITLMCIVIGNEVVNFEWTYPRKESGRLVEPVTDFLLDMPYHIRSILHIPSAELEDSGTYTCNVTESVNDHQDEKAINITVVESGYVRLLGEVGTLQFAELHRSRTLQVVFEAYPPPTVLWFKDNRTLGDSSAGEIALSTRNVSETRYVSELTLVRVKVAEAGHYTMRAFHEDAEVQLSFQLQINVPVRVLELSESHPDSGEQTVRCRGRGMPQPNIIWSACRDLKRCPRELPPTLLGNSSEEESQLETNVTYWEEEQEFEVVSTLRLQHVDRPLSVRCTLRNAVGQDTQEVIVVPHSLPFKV

B1: SP02P-SP26P: biparatopic PDGFRB VHH construct combining SP02P and SP26P (protein)
chain: EVQLVESGGGLVQAGGSLRLSCAASESISSIEQMGWFRQAPGKQRALVAINTYGGRTVYTNSVEGRFTMSRDSAKNMVYLQMTSLEPEDTAVYYCYAQTTAWRGGVWGQGTQVTVSSGGGGSGGGGSGGGGSEVQLVESGGGLVQAGGSLRLSCAASGRSFSSSVMGWFRQTPGKEREFVAATRWTAASTHYADSVKGRFTISRDHAENAVFLQMNSLKPEDTAVYYCAAGNYLDTAQYRYNYWGQGTQVTVSS
modifications: left off: small tags and cut ends
Turning to B1, the internalization result in experiment [1] and in experiment [2] (FIG. 19 left panel) was “observed” in each case. The “internalization rate compared to monomeric VHH SP02 and SP26” value is recorded as 5-10 fold in experiment [2] (IRDye800 conjugates, cells expressing human PDGFRB) and 5-10 fold in experiment [4]. For the same molecule, the “affinity for mPDGFRB-ECD” value in experiment [3] was “high affinity”. In experiment [5], the “affinity for rPDGFRB-ECD” value is on record as “high affinity”. Also, the “affinity for hPDGFRB-ECD” value in experiment [6] is listed as “high affinity”.
